Assay [1] has as its target T1, human serum albumin (human, UniProt P02768 25-609).
T1 construct: Immobilised on SPR chips; also added in solution in the FcRn occupancy assays; also called HSA; humanSA
Put plainly: SPR Biacore 3000, HSA on chip, pH 5.5. A general note: In SPR one partner is held on a chip, and binding of the other changes the refractive index at the surface.

The target of assay [2] is T1, human serum albumin. Put plainly: SPR Biacore 3000, HSA on chip, pH 7.4.
Assay [3] concerns the target T1, human serum albumin. The assay can be described thus: SPR Biacore 3000, HSA on chip, ratio of R0 at pH 5.5 and pH 7.4.
Assay [4] addresses T1, human serum albumin. The assay can be described thus: SPR Biacore 8K+ SCK, albumin on chip, pH 7.4.
For assay [5], the target named is T1, human serum albumin. The assay can be described thus: SPR Biacore 8K+ SCK, albumin on chip, pH 7.4. The source holds these as a separate data set.
Assay [6] has as its target T2, cynomolgus monkey serum albumin (cynomolgus monkey, UniProt A2V9Z4 25-608).
T2 construct: Immobilised on SPR chips; also called cynoSA; cynomolgus albumin
Put plainly: SPR Biacore 8K+ SCK, albumin on chip, pH 7.4.

The target of the next assay is T3, mouse serum albumin (mouse, UniProt P07724 25-608).
T3 construct: Immobilised on SPR chips; also called mouseSA; MSA
Put plainly: SPR Biacore 8K+ SCK, albumin on chip, pH 7.4.

Assay [7] concerns the target T1, human serum albumin. The assay can be described thus: SPR Biacore 8K+ SCK, albumin on chip, pH 5.5.
In assay [8] the target is T1, human serum albumin. The assay can be described thus: SPR Biacore 8K+ SCK, albumin on chip, pH 7.4. The source holds these as a separate data set.
Assay [9] addresses T2, cynomolgus monkey serum albumin. The assay can be described thus: SPR Biacore 8K+ SCK, albumin on chip, pH 5.5.
Assay [10] has the same target. The assay can be described thus: SPR Biacore 8K+ SCK, albumin on chip, pH 7.4. This is another data set of the same source.
The target in assay [11] is T1, human serum albumin. The assay can be described thus: SPR Biacore 8K+ SCK, albumin on chip, ratio of KD.
Assay [12] concerns the target T2, cynomolgus monkey serum albumin. Put plainly: SPR Biacore 8K+ SCK, albumin on chip, ratio of KD.

B1: 2H11-v3 fused at the C-terminus of Fc-ABDEG (two-armed) (Fc fusion)
chain: GGGGSGGGGSGGGGSGGGGSELQVVESGGGLVQAGGSLRLSCAASGRTFRSNTMGWFRQAPGKEREFVAAITWSGGTTYYADSVKGRFAISGDNAKNTVYLQMNSLKPEDTAVYYCAAEGAKWEPWNGIYHPADFGSWGQGTQVTVSS
notes: not shown: Fc-ABDEG domain
Take B1: in the assay with human serum albumin [1], the “R0 pH 5.5” value was 164 RU and the koff (commonly the rate constant with which the complex falls apart) turned out to be 0.000135 s⁻¹. In the assay with human serum albumin [2], the “R0 pH 7.4” value is 8.24 RU and the koff came to 0.0029 s⁻¹. The “R0 5.5/7.4” value in the assay with human serum albumin [3] is 19.9.

B2: 2H11-v16 fused at the C-terminus of Fc-ABDEG (two-armed) (Fc fusion)
chain: GGGGSGGGGSGGGGSGGGGSELQVVESGGGLVQAGGSLRLSCAASGRTFRSNTMGWFRQAPGKEREFVAAITWSGGTTYYADSVKGRFAISGDNAKNTVYLQMNSLKPEDTAVYYCAAEGPKWEPWNGIYHPADAGSWGQGTQVTVSS
notes: not shown: Fc-ABDEG domain
Consider B2, for which, in the assay with human serum albumin [1], the “R0 pH 5.5” value is 8.91 RU and the off-rate (koff) was 0.00301 s⁻¹. Besides, in the assay with human serum albumin [2], the “R0 pH 7.4” value was 0.571 RU and the koff worked out at 0.00193 s⁻¹. Further, the “R0 5.5/7.4” value with human serum albumin [3] worked out at 16.

B3: 2H11-v15 fused at the C-terminus of Fc-ABDEG (two-armed) (Fc fusion)
chain: GGGGSGGGGSGGGGSGGGGSELQVVESGGGLVQAGGSLRLSCAASGRTFRSNTMGWFRQAPGKEREFVAAITWSGGTTYYADSVKGRFAISGDNAKNTVYLQMNSLKPEDTAVYYCAAEGPKWEPWNGIYHPAAFGSWGQGTQVTVSS
notes: not shown: Fc-ABDEG domain
Regarding B3, in the assay with human serum albumin [1], the “R0 pH 5.5” value was found to be 235 RU and the koff was determined as 0.00174 s⁻¹. Besides, in the assay with human serum albumin [2], the “R0 pH 7.4” value came out at 0.635 RU and the koff was determined as 0.0025 s⁻¹. Besides, the “R0 5.5/7.4” value with human serum albumin [3] is 370.

B4: 2H11-v12 fused at the C-terminus of Fc-ABDEG (two-armed) (Fc fusion)
chain: GGGGSGGGGSGGGGSGGGGSELQVVESGGGLVQAGGSLRLSCAASGRTFRSNTMGWFRQAPGKEREFVAAITWSGGTTYYADSVKGRFAISGDNAKNTVYLQMNSLKPEDTAVYYCAAEGPKWEPWNGIAHPADFGSWGQGTQVTVSS
notes: not shown: Fc-ABDEG domain
As to B4, in the assay with human serum albumin [1], the “R0 pH 5.5” value amounted to 93.9 RU and the koff turned out to be 9.72e-05 s⁻¹. In the assay with human serum albumin [2], the “R0 pH 7.4” value worked out at 6.32 RU and the koff is 0.0012 s⁻¹. Moreover, the “R0 5.5/7.4” value with human serum albumin [3] stood at 14.9.

B5: Alb23 G33A/S101A (VHH)
VHH: EVQLLESGGGLVQPGGSLRLSCAASGFTFRSFAMSWVRQAPGKGPEWVSSISGSGSDTLYADSVKGRFTISRDNSKNTLYLQMNSLRPEDTAVYYCTIGGALSRSSQGTLVTVSS
notes: VHH alone
For B5, the “fold decrease in affinity compared to the parental Alb23 VHH fragment” value (“fold decrease in affinity” below) with human serum albumin [4] is at least 10 fold. The Kd – broadly, the equilibrium constant for the complex coming apart – was 116 nM with human serum albumin [5]; 146 nM in [6]; 118 nM with mouse serum albumin; 55 nM with human serum albumin [7]; 116 nM in the assay with human serum albumin [8]; 61.6 nM in assay [9]. The molecule further gave a Kd in assay [10] of 146 nM. For the same molecule, the koff worked out at 0.0672 s⁻¹ with human serum albumin [7], 0.133 s⁻¹ with human serum albumin [8], 0.0711 s⁻¹ in assay [9] and 0.129 s⁻¹ in [10]. The association rate constant (kon) (usually the rate constant with which the complex forms) with human serum albumin [7] amounted to 1.22e+06 M⁻¹ s⁻¹; in the assay with human serum albumin [8] it was 1.15e+06 M⁻¹ s⁻¹; in [9], 1.15e+06 M⁻¹ s⁻¹; in assay [10] it was 881000 M⁻¹ s⁻¹. Also, the entries for the “KD pH 5.5/pH 7.4” value (in the assay with human serum albumin [11]; in [12]) were 0.47 and 0.42, respectively.

B6: Alb23 G99A (VHH)
VHH: EVQLLESGGGLVQPGGSLRLSCAASGFTFRSFGMSWVRQAPGKGPEWVSSISGSGSDTLYADSVKGRFTISRDNSKNTLYLQMNSLRPEDTAVYYCTIAGSLSRSSQGTLVTVSS
notes: VHH alone
On to B6, for which the “fold decrease in affinity” value with human serum albumin [4] is at least 10 fold. The Kd was determined as 100 nM with human serum albumin [5]; 152 nM in assay [6]; 73.1 nM with mouse serum albumin; 42.5 nM with human serum albumin [7]; 100 nM with human serum albumin [8]; 47.2 nM in assay [9]. Besides, in assay [10], the Kd stood at 152 nM. In addition, the koff with human serum albumin [7] worked out at 0.0473 s⁻¹; with human serum albumin [8], 0.0954 s⁻¹; in assay [9], 0.0495 s⁻¹; in assay [10], 0.0809 s⁻¹. Moreover, the kon worked out at 1.11e+06 M⁻¹ s⁻¹ in the assay with human serum albumin [7], 955000 M⁻¹ s⁻¹ with human serum albumin [8], 1.05e+06 M⁻¹ s⁻¹ in assay [9] and 533000 M⁻¹ s⁻¹ in [10]. The “KD pH 5.5/pH 7.4” value with human serum albumin [11] was found to be 0.43; in assay [12], 0.31.

B7: Alb23 M34A (VHH)
VHH: EVQLLESGGGLVQPGGSLRLSCAASGFTFRSFGASWVRQAPGKGPEWVSSISGSGSDTLYADSVKGRFTISRDNSKNTLYLQMNSLRPEDTAVYYCTIGGSLSRSSQGTLVTVSS
notes: VHH alone
Regarding B7, in the assay with human serum albumin [4], the “fold decrease in affinity” value was at least 10 fold. Besides, the dissociation constant (Kd) in the assay with human serum albumin [5] turned out to be 175 nM; in [6] it was 182 nM; in the assay with mouse serum albumin, 149 nM; with human serum albumin [7], 73.8 nM; with human serum albumin [8], 175 nM; in assay [9] it was 76 nM. Besides, the Kd in assay [10] was 182 nM. The koff with human serum albumin [7] turned out to be 0.0837 s⁻¹; in the assay with human serum albumin [8], 0.226 s⁻¹; in [9], 0.0831 s⁻¹; in assay [10] it was 0.356 s⁻¹. The kon in the assay with human serum albumin [7] came out at 1.13e+06 M⁻¹ s⁻¹; with human serum albumin [8], 1.29e+06 M⁻¹ s⁻¹; in [9] it was 1.09e+06 M⁻¹ s⁻¹; in [10], 1.95e+06 M⁻¹ s⁻¹. Also, the “KD pH 5.5/pH 7.4” value (with human serum albumin [11]; in [12]) was 0.42 each time.

B8: Alb23 G100A (VHH)
VHH: EVQLLESGGGLVQPGGSLRLSCAASGFTFRSFGMSWVRQAPGKGPEWVSSISGSGSDTLYADSVKGRFTISRDNSKNTLYLQMNSLRPEDTAVYYCTIGASLSRSSQGTLVTVSS
notes: VHH alone
Consider B8, for which, in the assay with human serum albumin [4], the “fold decrease in affinity” value is at least 10 fold. Also, the dissociation constant Kd in the assay with human serum albumin [5] worked out at 30.6 nM; in assay [6], 37.9 nM; in the assay with mouse serum albumin, 87.8 nM; with human serum albumin [7] it was 19.3 nM; with human serum albumin [8], 30.6 nM; in assay [9], 21.5 nM. Binding in [10] was put at a Kd of 37.9 nM. In addition, the koff in the assay with human serum albumin [7] came out at 0.0184 s⁻¹; in the assay with human serum albumin [8], 0.0232 s⁻¹; in assay [9], 0.0195 s⁻¹; in [10] it was 0.0266 s⁻¹. Besides, the kon with human serum albumin [7] stood at 950000 M⁻¹ s⁻¹; with human serum albumin [8], 758000 M⁻¹ s⁻¹; in [9], 905000 M⁻¹ s⁻¹; in assay [10] it was 701000 M⁻¹ s⁻¹. Also, the “KD pH 5.5/pH 7.4” value is 0.63 with human serum albumin [11] and 0.57 in assay [12].

B9: Alb23 L59A (VHH)
VHH: EVQLLESGGGLVQPGGSLRLSCAASGFTFRSFGMSWVRQAPGKGPEWVSSISGSGSDTAYADSVKGRFTISRDNSKNTLYLQMNSLRPEDTAVYYCTIGGSLSRSSQGTLVTVSS
notes: VHH alone
For B9, in the assay with human serum albumin [4], the “fold decrease in affinity” value is at least 10 fold. For the same molecule, the Kd with human serum albumin [5] is 51 nM; in assay [6] it was 55.6 nM; with mouse serum albumin it was 354 nM; with human serum albumin [7] it was 28.6 nM; with human serum albumin [8], 51 nM; in [9], 25.6 nM. In addition, the Kd in [10] stood at 55.6 nM. The koff in the assay with human serum albumin [7] was 0.0268 s⁻¹; with human serum albumin [8] it was 0.0451 s⁻¹; in assay [9], 0.0241 s⁻¹; in assay [10], 0.0444 s⁻¹. Further, the kon in the assay with human serum albumin [7] was 935000 M⁻¹ s⁻¹; with human serum albumin [8], 885000 M⁻¹ s⁻¹; in assay [9] it was 940000 M⁻¹ s⁻¹; in assay [10], 797000 M⁻¹ s⁻¹. In addition, the “KD pH 5.5/pH 7.4” value with human serum albumin [11] came out at 0.56; in [12] it was 0.46.

Source of the values: patent publication US20260152573A1 (ARGENX, published 2026).
